B1: EHMT1 (parent)
chain: EEINKNISDFGRQQLLPPFPSLHQ

Variants of: B1
Experiment: protein stability index of a GFP-peptide fusion (GPS, HEK-293T) (PSI 1-6); higher = more stable
Conditions: c terminus: a fixed tail appended
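Note: lentivirally expressed fusions sorted by FACS into six bins by GFP to DsRed ratio, PSI derived from sequencing read proportions per bin multiplied by bin number.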

Protein stability index: each site, then its substitutions
I3: L 2.95 | M 2.74 | N 3.31 | P 2.68 | Q 2.69 | R 2.69 | S 3.13 | T 3.11 | V 2.9 | W 2.39 | Y 2.7
N4: A 2.63 | C 2.45 | D 3.26 | E 2.86 | F 2.15 | G 2.48 | H 2.94 | I 2.02 | K 2.55 | L 2.69 | M 2.52 | P 2.69 | Q 2.7 | R 2.73 | S 2.45 | T 2.33 | V 2.53 | W 2.15 | Y 2.01
K5: A 3.05 | C 2.54 | D 3.37 | E 3.15 | F 2.28 | G 2.71 | H 2.86 | I 2.51 | L 2.72 | M 3.23 | N 3.28 | P 3.06 | Q 3.11 | R 2.57 | S 2.84 | T 3.16 | V 2.68 | W 2.6 | Y 2.13
N6: A 2.85 | C 2.44 | D 3.15 | E 2.91 | F 1.91 | G 2.91 | H 2.4 | I 2.17 | K 2.38 | L 1.97 | M 2.92 | P 2.92 | Q 2.71 | R 2.1 | S 3.15 | T 2.65 | V 2.71 | W 1.76 | Y 2.09
I7: A 2.96 | C 2.88 | D 3.21 | E 3.38 | F 3.31 | G 3.3 | H 2.73 | K 2.79 | L 2.97 | M 3.03 | N 3.72 | P 2.38 | Q 3.58 | R 2.42 | S 2.83 | T 2.63 | V 2.98 | W 2.52 | Y 2.73
S8: A 3.22 | C 2.62 | D 3.07 | E 2.86 | F 2.64 | G 2.55 | H 2.77 | I 2.82 | K 3.02 | L 2.12 | M 2.72 | N 2.46 | P 3.12 | Q 2.64 | R 2.71 | T 2.77 | V 3.21 | W 2.02 | Y 2.53
D9: A 2.38 | C 2.09 | E 2.5 | F 2.1 | G 2.65 | H 2.41 | I 2.21 | K 2.18 | L 2.58 | M 2.02 | N 2.43 | P 2.45 | Q 2.63 | R 2.22 | S 2.42 | T 2.61 | V 2.31 | W 2.15 | Y 2.4
F10: A 3.04 | C 2.6 | D 3.91 | E 3.37 | G 3.39 | H 2.99 | I 2.52 | K 3.45 | L 2.91 | M 3.04 | N 3.24 | P 3.31 | Q 3.3 | R 2.88 | S 3.4 | T 2.86 | V 3.04 | W 2.59 | Y 3.11
G11: A 2.88 | C 1.94 | D 2.97 | E 3.06 | F 2.02 | H 2.43 | I 1.71 | K 2.59 | L 1.88 | M 2.85 | N 3 | P 2.87 | Q 3.25 | R 2.48 | S 2.73 | T 2.53 | V 2.24 | W 1.55 | Y 2.15
R12: A 3.2 | C 2.79 | D 3.64 | E 3.46
